Values of other authors in PMC2649756.

Target: βI-spectrin 1898-2083 (Homo sapiens) (UniProt P11277)
Conditions: cited from earlier work

αI-spectrin, sequence (P02549 whole entry): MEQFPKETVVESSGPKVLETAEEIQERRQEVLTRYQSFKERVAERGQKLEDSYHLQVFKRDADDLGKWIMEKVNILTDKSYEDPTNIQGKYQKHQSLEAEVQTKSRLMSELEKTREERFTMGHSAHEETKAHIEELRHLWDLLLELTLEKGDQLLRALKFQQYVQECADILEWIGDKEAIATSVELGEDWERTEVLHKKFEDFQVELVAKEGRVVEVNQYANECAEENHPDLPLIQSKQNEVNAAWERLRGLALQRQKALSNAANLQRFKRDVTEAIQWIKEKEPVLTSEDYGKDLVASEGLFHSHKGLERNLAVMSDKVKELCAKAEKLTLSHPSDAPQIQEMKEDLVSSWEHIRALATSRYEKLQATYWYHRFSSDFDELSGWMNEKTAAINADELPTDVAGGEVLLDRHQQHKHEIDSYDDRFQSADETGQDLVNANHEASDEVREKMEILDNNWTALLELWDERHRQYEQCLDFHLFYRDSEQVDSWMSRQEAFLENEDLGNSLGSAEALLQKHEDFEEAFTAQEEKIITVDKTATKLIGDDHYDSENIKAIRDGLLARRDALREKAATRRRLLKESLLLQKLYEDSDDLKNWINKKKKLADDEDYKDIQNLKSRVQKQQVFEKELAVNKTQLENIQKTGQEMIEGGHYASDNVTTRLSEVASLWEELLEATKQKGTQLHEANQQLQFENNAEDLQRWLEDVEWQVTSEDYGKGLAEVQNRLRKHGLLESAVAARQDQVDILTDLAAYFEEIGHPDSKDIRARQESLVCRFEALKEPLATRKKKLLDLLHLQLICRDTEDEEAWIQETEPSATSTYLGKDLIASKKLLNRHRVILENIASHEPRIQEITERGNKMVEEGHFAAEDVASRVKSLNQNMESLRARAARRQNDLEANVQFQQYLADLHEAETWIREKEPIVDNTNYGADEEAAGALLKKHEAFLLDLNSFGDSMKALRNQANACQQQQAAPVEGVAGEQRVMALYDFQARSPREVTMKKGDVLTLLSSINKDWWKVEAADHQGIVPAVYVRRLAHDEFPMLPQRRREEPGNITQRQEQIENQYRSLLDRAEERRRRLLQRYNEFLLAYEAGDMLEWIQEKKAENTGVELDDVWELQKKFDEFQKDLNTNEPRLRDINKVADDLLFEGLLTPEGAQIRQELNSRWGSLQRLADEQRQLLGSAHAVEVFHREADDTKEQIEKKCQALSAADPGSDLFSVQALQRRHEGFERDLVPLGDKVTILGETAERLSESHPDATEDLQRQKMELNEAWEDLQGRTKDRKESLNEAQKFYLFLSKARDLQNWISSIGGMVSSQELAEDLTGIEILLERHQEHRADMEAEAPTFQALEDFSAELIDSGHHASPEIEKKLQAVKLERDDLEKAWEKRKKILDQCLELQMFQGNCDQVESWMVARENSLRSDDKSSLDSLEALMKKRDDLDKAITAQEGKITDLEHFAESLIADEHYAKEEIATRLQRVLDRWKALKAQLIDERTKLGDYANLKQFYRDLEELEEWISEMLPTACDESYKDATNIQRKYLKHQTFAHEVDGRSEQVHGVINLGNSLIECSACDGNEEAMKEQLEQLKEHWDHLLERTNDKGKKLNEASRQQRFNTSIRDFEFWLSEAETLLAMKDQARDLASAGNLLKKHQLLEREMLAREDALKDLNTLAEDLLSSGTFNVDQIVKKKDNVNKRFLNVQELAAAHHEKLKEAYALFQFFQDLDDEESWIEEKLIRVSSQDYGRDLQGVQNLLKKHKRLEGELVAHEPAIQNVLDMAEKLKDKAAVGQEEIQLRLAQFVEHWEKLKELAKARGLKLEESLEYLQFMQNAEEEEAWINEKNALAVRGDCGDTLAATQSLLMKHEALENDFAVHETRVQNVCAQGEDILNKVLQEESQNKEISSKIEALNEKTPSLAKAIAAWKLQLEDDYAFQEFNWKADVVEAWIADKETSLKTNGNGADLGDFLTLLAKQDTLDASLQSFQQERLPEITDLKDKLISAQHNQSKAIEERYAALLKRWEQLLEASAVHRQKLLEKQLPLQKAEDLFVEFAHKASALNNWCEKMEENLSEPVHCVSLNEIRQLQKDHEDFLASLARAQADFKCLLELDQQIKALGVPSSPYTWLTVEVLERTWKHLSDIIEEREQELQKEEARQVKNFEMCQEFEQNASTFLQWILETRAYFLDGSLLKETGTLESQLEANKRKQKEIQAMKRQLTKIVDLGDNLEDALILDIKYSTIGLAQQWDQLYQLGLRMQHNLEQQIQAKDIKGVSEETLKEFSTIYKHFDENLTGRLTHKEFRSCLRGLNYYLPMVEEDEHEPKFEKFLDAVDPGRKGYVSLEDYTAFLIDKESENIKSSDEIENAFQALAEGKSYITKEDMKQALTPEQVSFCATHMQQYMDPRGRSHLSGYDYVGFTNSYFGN
βI-spectrin 1898-2083 (Homo sapiens), sequence (P11277 1898-2083): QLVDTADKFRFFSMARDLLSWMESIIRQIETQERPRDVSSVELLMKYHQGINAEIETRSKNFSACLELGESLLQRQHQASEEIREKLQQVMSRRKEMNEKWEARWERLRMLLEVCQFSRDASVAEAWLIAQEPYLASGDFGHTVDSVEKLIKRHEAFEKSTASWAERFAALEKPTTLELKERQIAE

## αI-spectrin (from UniProt P02549)
  Kd: 1000 nM
